Assay results published in US20210032312A1 (Janssen / Centocor, published 2021).

Legend:
human CD8A-Fc (in house) = target: T1, human CD8A-Fc (in house) (human, UniProt P01732 22-182, limits assumed); experiment: SPR (ProteOn), captured hCD8A-Fc
T1 construct: captured by goat anti-human Fc on the ProteOn chip; also called hCD8A-Fc; recombinant human CD8 alpha; not shown: linker/tag and Fc of human IgG1

[1] = target: T2, cynomolgus monkey CD8 alpha on primary cynomolgus CD8+ T cells (cynomolgus monkey, UniProt P01732 23-235 (human entry)); experiment: flow cytometry, cyno CD8+ T cells
T2 construct: also called Cyno CD8alpha; cyno CD8A

[2] = target: T3, human CD8 alpha (CD8A) on primary human CD8+ T cells (human, UniProt P01732 22-235); experiment: flow cytometry, human CD8+ T cells
T3 construct: whole, on cells; also called hCD8A
T3 sequence (P01732 22-235): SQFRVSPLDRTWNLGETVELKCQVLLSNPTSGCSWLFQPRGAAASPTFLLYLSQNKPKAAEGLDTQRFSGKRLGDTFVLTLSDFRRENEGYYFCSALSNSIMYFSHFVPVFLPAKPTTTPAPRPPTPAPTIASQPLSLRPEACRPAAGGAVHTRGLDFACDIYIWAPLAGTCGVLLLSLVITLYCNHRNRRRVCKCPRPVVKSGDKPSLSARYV

T1 sequence (P01732 22-182 limits assumed): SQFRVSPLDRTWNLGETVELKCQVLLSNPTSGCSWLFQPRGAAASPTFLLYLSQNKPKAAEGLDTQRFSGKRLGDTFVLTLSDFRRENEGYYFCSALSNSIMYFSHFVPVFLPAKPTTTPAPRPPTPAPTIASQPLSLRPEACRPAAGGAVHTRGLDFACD
T2 sequence (P01732 other isoform, or with tags, fused parts or gaps limits assumed): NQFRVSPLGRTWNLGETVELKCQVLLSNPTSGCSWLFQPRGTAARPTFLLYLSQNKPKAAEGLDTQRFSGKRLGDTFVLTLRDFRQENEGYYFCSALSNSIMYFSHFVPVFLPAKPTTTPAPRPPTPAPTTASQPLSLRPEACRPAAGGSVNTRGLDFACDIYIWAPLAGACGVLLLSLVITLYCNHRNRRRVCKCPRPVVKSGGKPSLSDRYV

| Binder | koff (human CD8A-Fc (in house)) [s⁻¹] | Cyno T-cell Binding 0.2 uM (MFI) [1] [MFI] | Cyno T-cell Binding 2 uM (MFI) [1] [MFI] | Human T-cell Binding 0.2 uM (MFI) [2] [MFI] | Human T-cell Binding 2 uM (MFI) [2] [MFI] |
| --- | --- | --- | --- | --- | --- |
| P283ER9P1365_E2 (designed binder, FN3 domain) LPAPKNLVVSRVTEDSARLSWTAPDAAFDSFYIPYRESEFRGEAIALPVPGSERSYDLTGLKPGTKYRVIIIGVKGGEFSQPLAAIFTT | 0.000311 | 1900 | 17200 | 2870 | 20000 |
| P283ER9P1365_A7 (designed binder, FN3 domain) LPAPKNLVVSRVTEDSARLSWTAPDAAFDSFYIPYWESEVYGEAIALPVPGSERSYDLTGLKPGTEYQVSIIGVKGGVYSQPLAAIFTT | 0.000786 | 2960 | 36600 | 1320 | 18500 |
| P283ER9P1365_F4 (designed binder, FN3 domain) LPAPKNLVVSRVTEDSARLSWTAPDAAFDSFYIPYRESEFRGEAIALPVPGSERSYDLTGLKPGTKYSVIIIGVKGGEFSQPLGAIFTT | 0.000216 | 2040 | 43200 | 2600 | 24100 |
| P283ER9P1365_C1 (designed binder, FN3 domain) LPAPKNLVVSRVTEDSARLSWTAPDAAFDSFYIPYWESEVYGEAIALPVTGSERSYDLTGLKPGTEYQVSIIGVKGGVYSQPLAAIFTT | 0.00115 | 1880 | 24000 | 644 | 8000 |
| P283ER9P1365_A1 (designed binder, FN3 domain) LPAPKNLVVSRVTEDSARLSWTAPDAAFDSFGIAYVEWWHRGEAISLPVPGSERSYDLTGLKPGTEYNVIITGVKGGIPSHPLGAIFTT | 0.000467 | 1360 | 9680 | 3860 | 25500 |
| P283ER9P1365_B6 (designed binder, FN3 domain) LPAPKNLVVSRVTEDSARLSWTAPDAAFDSFGIGYAEPVVTGEAISLSVPGSERSYDLTGLKPGTEYWVVIIGVKGGINSYPLGAIFTT | 0.000288 | 2690 | 30100 | 3400 | 23000 |
| P283BR9P1363_G7 (designed binder, FN3 domain) LPAPKNLVVSRVTEDSARLSWSAKKFPRHFDSFLIQYQESEKVGEAIVLTVPGSERSYDLTGLKPGTEYTVSIYGVDVKWEGNRPVASNPLSAIFTT | 4.01e-05 | 3020 | 7210 | 2340 | 4640 |
| P283BR9P1363_E6 (designed binder, FN3 domain) LPAPKNLVVSRVTEDSARLSWYARKFISPFDSFLIQYQESEKVGEAIVLTVPGSERSYDLTGLKPGTEYTVSIYGVDVKWEGNRPVASNPLSAIFTT | 0.00136 | 3720 | 16800 | 2080 | 8240 |

Other lines, results leading:

| koff (human CD8A-Fc (in house)) [s⁻¹] | Cyno T-cell Binding 0.2 uM (MFI) [1] [MFI] | Cyno T-cell Binding 2 uM (MFI) [1] [MFI] | Human T-cell Binding 0.2 uM (MFI) [2] [MFI] | Human T-cell Binding 2 uM (MFI) [2] [MFI] | Binder |
| --- | --- | --- | --- | --- | --- |
| 0.00367 | 383 | 489 | 318 | 1280 | P283ER9P1365_G1 (designed binder, FN3 domain) LPAPKNLVVSRVTEDSARLSWTAPDAAFDSFYIPYRESEFRGEAIALSVPGSERSYDLTGLKPGTKYRVIIIGVKGGEFSQPLGAIFTT |
| 0.000165 | 1020 | 16100 | 2660 | 18800 | P283HR7P1368_F10 (designed binder, FN3 domain) LPAPKNLVVSRVTEDSARLSWTAPDAAFDSFYIPYRESEFRGEAIALPVPGSERSYDLTGLKPGTKYRVIIIGVKGGEFSQPLGAIFTT |
| 0.000375 | 436 | 19600 | 953 | 18000 | P283ER9P1365_H3 (designed binder, FN3 domain) LPAPKNLVVSRVTEDSARLSWTAPDAAFDSFYIPYRESEFRGEAIALPVPGSERSYDLTGLKPGTKYRVIIIGVKGGEFSQPLSAIFTT |
| 0.000763 | 4890 | 35900 | 1610 | 22800 | P283HR7P1368_H8 (designed binder, FN3 domain) LPAPKNLVVSRVTEDSARLSWTAPDAAFDSFGITYLDPRNGEAISLNVPGSERSYDLTGLKPGTEYWVVIIGVKGGINSYPLGASFTT |
| 0.00215 | 11600 | 69800 | 4940 | 31300 | P283HR7P1368_G1 (designed binder, FN3 domain) LPAPKNLVVSRVTEDSARLSWTAPDAAFDSFLITYWEIEPEGEAIFLGVPGSERSYDLTGLKPGTEYRVQINGVKGGTISYPLFAGFTT |
| 0.00018 | 3540 | 20600 | 3510 | 14300 | P283HR7P1368_F6 (designed binder, FN3 domain) LPAPKNLVVSRVTEDSARLSWTAPDAAFDSFGIGYIEWVHRGEAISLHVPGSERSYDLTGLKPGTEYVVAIVGVKGGEPSTPLGAPFTT |
| 0.00145 | 2660 | 23800 | 753 | 8120 | P283HR7P1368_G10 (designed binder, FN3 domain) LPAPKNLVVSRVTEDSARLSWTAPDAAFDSFGIAYVEWWHRGEAISLPVPGSERSYDLTGLKPGTEYWVTILGVKGGIISTPLGASFTT |
| 0.0013 | 950 | 11100 | 1910 | 15200 | P283HR7P1368_D2 (designed binder, FN3 domain) LPAPKNLVVSRVTEDSARLSWTAPDAAFNSFGIGYAEPAVTGEAISLSVPGSERSYDLTGLKPGTEYWVVIIGVKGGINSYPLGASFTT |
| 0.000349 | 1310 | 13300 | 2220 | 12700 | P283HR7P1368_C3 (designed binder, FN3 domain) LPAPKNLVVSRVTEDSARLSWTAPDAAFDSFGIGYAEPAVTGEAISLSVPGSKRSYDLTGLKPGTEYWVVIIGVKGGINSYPLGASFTT |
| 0.000235 | 23500 | 53000 | 6850 | 29000 | P283HR7P1368_D4 (designed binder, FN3 domain) LPAPKNLVVSRVTEDSARLSWTAPDAAFDSFAIWCVEPIPEGEAIPLFVPGSERSYDLTGLKPGTEYRVGIRGVKGGTFSSPLAAPFTT |
